The target of this test is SARS-CoV-2 RBD, His6-tagged, for biolayer interferometry (SARS-CoV-2) (UniProt P0DTC2). The test is described as follows: BLI. (In general: In BLI a coated tip is dipped into the sample, and binding shifts an interference pattern.)

One substance from paper PMC8064889 can be followed below.

For the substance CR3022 Fab, the dissociation constant (Kd) (usually the free concentration of one partner at which half of the binding sites on the other are occupied at equilibrium, for simple one-to-one binding) is 0.0463 µM.
